The test deals with T1, dimeric cMet-Fc recombinant protein (rh cMet-Fc, R&D Systems ref. 358-MT/CF) (human, UniProt P08581 25-932).
T1 construct: extracellular domain; Bought reagent; also called cMet extracellular domain fusion protein; recombinant human cMet protein; not shown: Fc part
The test can be described thus: ELISA on coated dimeric cMet-Fc. As to the method: Obtained hybridomas were initially screened by ELISA on the dimeric cMet-Fc recombinant protein. Briefly, the recombinant human cMet protein was coated overnight at 4° C. to Immulon II 96-well plates and, after a 1 h blocking step with a 0.5% gelatine solution, pure hybridoma supernatant was added for an additional 1 h at 37° C. Then plates were washed and a goat anti-mouse (Jackson) specific IgG HRP was added for 1 h at 37° C. Reaction development was performed using the TMB substrate solution. Then a second screen was performed by FACS analysis on […] cell line, that express moderate to high levels of cMet, to be sure that the produced antibodies will be able to also recognize the native receptor on tumor cells. For that purpose 2×10⁵ cells were incubated with either 10 μg/ml of m205A5, m227D3 or m10D₉ (IgG1 isotype control Mab) for 20 min at 4° C. After 3 washing in phosphate-buffered saline (PBS) supplemented with 1% BSA and 0.01% NaN₃, cells were incubated with secondary antibody Goat anti-mouse Alexa 488 (dilution 1/500) for 20 minutes at 4° C. After 3 additional washings in PBS supplemented with 1% BSA and 0.1% NaN₃, cells were analyzed by FACS (Facscalibur, Becton-Dickinson). At least 5000 cells were assessed to calculate the mean value of fluorescence intensity.
Background: ELISA stands for enzyme-linked immunosorbent assay.

T1 sequence (P08581 25-932): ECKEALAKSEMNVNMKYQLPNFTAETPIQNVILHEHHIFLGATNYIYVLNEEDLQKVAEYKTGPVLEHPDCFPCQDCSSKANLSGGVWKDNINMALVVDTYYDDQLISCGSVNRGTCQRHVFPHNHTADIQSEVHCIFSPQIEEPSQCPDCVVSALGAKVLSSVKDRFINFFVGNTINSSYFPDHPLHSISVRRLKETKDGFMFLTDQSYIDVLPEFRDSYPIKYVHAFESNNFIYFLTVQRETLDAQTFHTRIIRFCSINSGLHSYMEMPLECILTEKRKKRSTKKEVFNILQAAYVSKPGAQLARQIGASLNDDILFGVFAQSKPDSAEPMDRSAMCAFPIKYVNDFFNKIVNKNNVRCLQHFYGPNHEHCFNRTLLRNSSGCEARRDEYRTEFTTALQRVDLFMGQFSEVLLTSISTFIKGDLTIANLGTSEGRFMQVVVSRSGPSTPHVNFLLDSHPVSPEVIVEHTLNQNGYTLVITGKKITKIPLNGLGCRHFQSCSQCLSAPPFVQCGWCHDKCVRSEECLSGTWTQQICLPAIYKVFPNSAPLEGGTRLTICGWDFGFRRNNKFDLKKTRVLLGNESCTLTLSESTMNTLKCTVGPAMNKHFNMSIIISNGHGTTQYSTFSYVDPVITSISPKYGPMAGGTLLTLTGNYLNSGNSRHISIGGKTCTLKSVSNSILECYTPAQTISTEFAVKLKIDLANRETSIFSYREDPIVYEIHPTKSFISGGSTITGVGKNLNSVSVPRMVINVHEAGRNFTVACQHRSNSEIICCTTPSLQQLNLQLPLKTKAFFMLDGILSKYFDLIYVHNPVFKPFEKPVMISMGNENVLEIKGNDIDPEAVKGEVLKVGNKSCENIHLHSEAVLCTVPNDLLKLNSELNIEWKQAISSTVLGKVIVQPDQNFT

B1: 227D3 monoclonal antibody (murine, secreted by hybridoma CNCM I-4247) (antibody, V domains shown)
VH: EVKLVESGGDLVKPGGSLQLSCAASGFTFSSYAMSWVRQTPEMRLEWVASIMGGGTTYYPDSVKGRFTISRDIARNILNLQMSSLRSEDTAIYYCARGRDYGIRSYAMDYWGQGTSVTVSS
VL: DIVMTQAAFSNPVTLGTSVSISCRSSKSLLHSNGITYLYWYLQKPGQSPQLLIYQMSNLASGVPDRFSSSGSGTDFTLRISRVEAEDVGVYYCAQNLELPYTFGGGTKLEIK
notes: Whole murine monoclonal antibody from hybridoma; mouse IgG1 isotype controls were used beside it; also called m227D3; 227D3 Mab
For B1, the binding result is “binds”.

B2: 205A5 monoclonal antibody (murine, secreted by hybridoma CNCM I-4246) (antibody, V domains shown)
VH: QVQLKQSGPGLVQPSQSLSITCTVSGFSLTDYGIQWVRQSPGQGLEWLGVIWRGGSTDYNAPFMSRLSITKDNSKSQVFFRMNSLQADDTAIYYCATSYYRYDGPFTYWGQGTLVTVSA
VL: NIVLTQSPASLAVSLGQRATISCRASESVDSNGNSFIHWYQQKPGQPPKLLIYVASKLESGVPARFSGSGSRTDFTLTIDPVEAEDVATYYCQQNNEYPLTFGAGTKLELK
notes: Whole murine monoclonal antibody from hybridoma; mouse IgG1 isotype controls were used beside it; also called m205A5; 205A5 Mab
As to B2, the binding result was “binds”.

The values are drawn from patent US20130102494A1 (PIERRE FABRE MEDICAMENT, published 2013).
